{"source": "paper PMC5971062", "about": "(Biochemistry, 2018)", "biological_target": "T1, Enhanced intracellular survival (Eis) protein from Mycobacterium tuberculosis, wild type (Mycobacterium tuberculosis, UniProt P9WFK7)", "T1 sequence": "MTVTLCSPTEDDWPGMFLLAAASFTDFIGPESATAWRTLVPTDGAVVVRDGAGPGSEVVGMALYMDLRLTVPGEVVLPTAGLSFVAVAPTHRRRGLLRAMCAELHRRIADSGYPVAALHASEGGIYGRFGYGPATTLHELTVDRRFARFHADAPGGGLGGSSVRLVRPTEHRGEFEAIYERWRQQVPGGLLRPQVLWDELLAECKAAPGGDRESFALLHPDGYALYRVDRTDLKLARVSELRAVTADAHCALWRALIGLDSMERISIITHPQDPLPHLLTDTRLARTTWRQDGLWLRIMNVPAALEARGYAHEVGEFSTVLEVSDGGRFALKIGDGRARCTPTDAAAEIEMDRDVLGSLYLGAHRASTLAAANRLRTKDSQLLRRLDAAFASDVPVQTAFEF", "assay": "crystal structure"}
{"binder": "ATKAPAKKA", "note": "[HupB_Mtb 9-mer peptide ATKAPAKKA]", "values": [{"measurement": "binding result", "result": "binds"}]}
